Measured values from US20140287985A1, “NOVEL USES OF ELAFIN” (Proteo Biotech AG, priority 2010, published 2014).

Experiments:
[1] = tested on: IL-8; test: Serum IL-8 6 h after esophagectomy (ELISA); format: in vivo, human; settings: 200 mg i.v.; 6 h postoperatively; versus placebo
Description: Blood samples were taken 6 h after finishing surgery and serum was prepared. The serum level of IL-8 was measured using a commercially available ELISA, (“Immulite, IL-8”, available from Siemens Medical Solution Diagnostics).

[2] = tested on: Pseudomanae aeruginosa; settings: cited from earlier work
[3] = molecular target: T1, human leukocyte elastase (Homo sapiens, UniProt P08246); test: Inhibition of leukocyte elastase (Ki); format: biochemical
T1 sequence (P08246 30-267): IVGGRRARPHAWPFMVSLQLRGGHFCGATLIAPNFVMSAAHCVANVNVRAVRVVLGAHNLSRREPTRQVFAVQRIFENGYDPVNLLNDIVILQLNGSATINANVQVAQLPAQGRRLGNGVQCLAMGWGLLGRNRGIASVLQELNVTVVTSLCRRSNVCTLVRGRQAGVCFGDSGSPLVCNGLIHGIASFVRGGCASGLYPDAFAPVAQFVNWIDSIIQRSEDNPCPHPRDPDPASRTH
From the text: The invention generally relates to novel uses of polypeptides comprising the sequence depicted in SEQ ID NO: 1 or homologue, derivatives, or fragments of the sequence depicted in SEQ ID NO: 1, for the treatment of medical conditions for which a use of […] has not yet been contemplated. […] Experiments for measuring the activity of leukocyte elastase and its inhibition can be conducted by the method described in European Patent EP 0 402 068. As used herein, the term “homologue” refers to peptides or polypeptides which share a substantial degree of homology on the amino acid level with the sequence of SEQ ID NO: 1 over a certain stretch of its primary structure. In particular, the term “homologue” relates to polypeptides having a sequence (or comprising such sequence) which differs from the sequence depicted in SEQ ID NO: 1 by the substitution (or deletion) of one or more single amino acids. Generally, any amino acid from the sequence depicted in SEQ ID NO: 1 can be deleted or substituted against another amino acid as long as the inhibitory activity of the polypeptide is not lost. Further polypeptides are also included which differ from the sequence of SEQ ID NO: 1 by the insertion of one or more additional amino acids. “One or more” in the above context always refers to 1-50, preferably 1-20, even more preferably 1-10, most preferably 1-5. […]

[4] = tested on: Staphylococcus aureus; settings: cited from earlier work
[5] = Phase I: plasma Elafin concentrations (ELISA) after single intravenous infusion in healthy male volunteers
Description: Each dose was administered to 6 individuals. After Elafin administration blood samples were taken at the indicated times from each volunteer and the plasma prepared and frozen to −20° C. Elafin in the plasma samples was quantified using an ELISA.

[6] = tested on: rats; test: Biocompatibility: 14 days continuous intravenous infusion in rats; format: in vivo
Description: Rats were treated with up to 100 mg elafin/kg/day over a period of 14 days by continuous intravenous infusion.

[7] = tested on: IL-6; test: Serum IL-6 2 h after esophagectomy (immunoassay); format: in vivo, human; settings: 200 mg i.v.; 2 h postoperatively; versus placebo
Description: Blood samples were taken 2 h after finishing surgery and serum was prepared. The serum level of IL-6 was measured using a routine immunoassay (“Immulite, IL-6”, available from Siemens Medical Solution Diagnostics).

[8] = molecular target: T2, serum elastase (Homo sapiens, UniProt P08246); test: Serum elastase activity after subcutaneous injection in a healthy human volunteer; format: in vivo; settings: 100 mg subcutaneously; within the first 30 min-4 hours
T2 construct: from tissue; host or cells: human serum
T2 sequence (P08246 30-267): T1 sequence (P08246 30-267)
Description: 100 mg of Elafin in physiological saline were injected subcutaneously into the abdomen of a healthy human volunteer. Blood samples were removed at the times indicated in FIG. 10 and serum prepared and stored at −20° C.

[9] = molecular target: T3, leukocyte elastase activity in the serum (Homo sapiens, UniProt P08246); test: Phase I: serum elastase activity after single intravenous infusion in healthy male volunteers; format: in vivo
T3 construct: from tissue; host or cells: human serum (ex vivo, after in vivo dosing of Elafin)
T3 sequence (P08246 30-267): T1 sequence (P08246 30-267)
Description: In order to assess the potential pharmacological effect of administered Elafin the inhibition of leukocyte elastase activity in the serum was measured.
The data presented in FIG. 7 were obtained in a Phase I clinical trial.
Within each dosage group the median elastase activity is shown relative to the predose value at t=0 min.

[10] = molecular target: T2, serum elastase; test: Serum elastase activity (photometric assay) in patients undergoing esophagectomy; format: in vivo; settings: 200 mg i.v. over 30 min, beginning 15 min before surgery
Description: Blood samples were removed at the intervals indicated and serum was prepared and stored frozen at −20° C. Serum elastase activity was determined using a photometric assay.

[11] = Plasma Elafin levels (ELISA) after subcutaneous injection in a healthy human volunteer; format: in vivo; settings: 100 mg subcutaneously, n = 1
Description: 100 mg of Elafin physiological saline were injected subcutaneously into the abdomen of a healthy human volunteer. Blood samples were removed at the times indicated in FIG. 9 and plasma prepared and stored at −20° C. The plasma Elafin levels were measured using an ELISA.

[12] = Stability of Elafin to sterilization, quantified by HPLC; format: physicochemical
Description: (§1) Lyophilized samples of 300 μg Elafin were sterilized either by heat sterilization or by ethylene oxide sterilization in a suitable standard sterile packing material. After sterilization, samples were dissolved in 300 μl distilled water. Elafin was quantified by HPLC (reverse phase C8-separation medium) and by determination of elastase inhibitory activity.

[13] = tested on: CRP; settings: 200 mg i.v.; first postoperative day; versus placebo
Description: Patients undergoing esophagectomy for esophagus carcinoma were administered either 200 mg Elafin in 250 mL physiological saline (verum) or 250 mL saline (placebo) i.v. over a period of 30 min beginning 15 min before the commencement of surgery. Serum was prepared from blood samples which were taken on admission and on the day after surgery. The serum levels of CRP were measured using a commercially available ELISA. (CRPL 3, cobas®, available from Roche/Hitachi).

[14] = Period of postoperative intensive care (ICU) after esophagectomy; format: in vivo, human; settings: 200 mg i.v.
From the text: After surgery all patients were routinely admitted to the intensive care unit (ICU) at least overnight. Patients were maintained in the ICU for as long as the treating physician considered necessary.

[15] = Plasma Elafin levels (ELISA) in patients undergoing esophagectomy; format: in vivo, human
Description: Blood samples were removed at the intervals indicated and plasma was prepared and stored frozen at −20° C. Plasma Elafin levels were measured using an ELISA.

[16] = tested on: elastase; test: Stability of Elafin to sterilization, elastase inhibitory activity; format: biochemical
Description: as §1

[17] = rats, up to 100 mg/kg/day, 14 days continuous i.v. infusion

For “Elafin: Human anti-protease polypeptide of 57 amino acids, about 6 kDa (SEQ ID NO: 1); reversible inhibitor of neutrophil elastase and proteinase 3 (AQEPVKGPVSTKPGSCPIILIRCAMLNPPNRCLKDTDCPGIKKCCEGSCGMACFVPQ; listed as Homo sapiens)”, the “diminution of postoperative increase in serum IL-8” value [1] is given as “about 70%”, the “kill Pseudomanae aeruginosa” value [2] is given as “kill” and the Ki [3] is given as ~100 pM. For the same substance, the “kill Staphylococcus aureus” value [4] was “kill”, the “half-life of elafin in plasma” value ([5]; on average) was 1.92 h and the “mode of elimination from plasma” value ([5]; single i.v. infusion, healthy volunteers) was “eliminated in two first-order processes”. The side effects ([6]; intravenously to rats) was “without any side effects”, the body weight [6, 17] was “Neither food consumption nor body weight was influenced” and the “clinical signs of haemolysis or cytotoxicity in skin, eyes, mucous membranes, lungs and circulation” value [6, 17] was “no clinical signs of haemolysis or cytotoxicity were observed”. The food consumption [6, 17] was “Neither food consumption nor body weight was influenced”, the mortality [6, 17] was “No mortality” and the “diminution of postoperative increase in serum IL-6” value [7] was “about 80%”. The “inhibition of serum elastase activity” value [8] was “potent inhibition”, the “Median t50% (duration of serum elastase inhibition to a threshold level of 50%)” value ([9]; 20 mg i.v.) was 40 min and the “Median t50% (duration of serum elastase inhibition to a threshold level of 50%)” value ([9]; 200 mg i.v.) was 480 min. The “Median t50% (duration of serum elastase inhibition to a threshold level of 50%)” value ([9]; 400 mg i.v.) was 720 min, the “period of pharmacologically relevant elastase inhibition” value ([9]; doses of 100-400 mg i.v.) was “up to 720 min” and the “inhibition of serum elastase” value ([9]; single i.v. infusion over 30 min, various doses) was “rapid and potent inhibition”. For the same substance, the “serum elastase activity during the period of surgery” value [10] was “markedly reduced”, the “serum elastase activity in the course of the subsequent 3 postoperative days” value [10] was “recovered to slightly less than the preoperative level” and the “time of peak plasma concentration after administration” value [11] was “about 60 min”. For the same substance, the HPLC (Elafin quantified) ([12]; Control (room temperature)) was 108 µg, the HPLC (Elafin quantified) ([12]; Ethylene oxide sterilization) was 100 µg and the “HPLC (Elafin quantified)” value ([12]; Heat sterilization) was 0 µg. The “diminution of postoperative increase in serum CRP” value [13] was “about 70%”, the “period of postoperative ICU care required” value ([14]; compared with placebo) was “significant reduction” and the “reduction of necessity for intensive care” value ([14]; meaning of 'significant reduction' (at least 25% or one day)) was “at least 25%”. For the same substance, the “half life estimated from plasma levels in esophagectomy patients” value ([15]; 200 mg i.v. at the beginning of surgery) was “at most 2 h”, the “period of significant plasma Elafin concentrations after the end of the operation” value ([15]; 200 mg i.v. over 30 min, beginning 15 min before surgery) was “up to 6 h” and the Inhibitory activity ([16]; Control (room temperature)) was 100%. For the same substance, the Inhibitory activity ([16]; Ethylene oxide sterilization) was 101% and the Inhibitory activity ([16]; Heat sterilization) was −19- %.
